From PMC2810746 (Cell host & microbe, 2009)

Target: the molecule itself
Assay: immunoblotting of unboiled samples

B1: adenovirus penton base, recombinant, expressed in COS-7 cells (natural protein)
chain: MRRAAMYEEGPPPSYESVVSAAPVAAALGSPFDAPLDPPFVPPRYLRPTGGRNSIRYSELAPLFDTTRVYLVDNKSTDVASLNYQNDHSNFLTTVIQNNDYSPGEASTQTINLDDRSHWGGDLKTILHTNMPNVNEFMFTNKFKARVMVSRLPTKDNQVELKYEWVEFTLPEGNYSETMTIDLMNNAIVEHYLKVGRQNGVLESDIGVKFDTRNFRLGFDPVTGLVMPGVYTNEAFHPDIILLPGCGVDFTHSRLSNLLGIRKRQPFQEGFRITYDDLEGGNIPALLDVDAYQASLKDDTEQGGGGAGGSNSSGSGAEENSNAAAAAMQPVEDMNDHAIRGDTFATRAEEKRAEAEAAAEAAAPAAQPEVEKPQKKPVIKPLTEDSKKRSYNLISNDSTFTQYRSWYLAYNYGDPQTGIRSWTLLCTPDVTCGSEQVYWSLPDMMQDPVTFRSTRQISNFPVVGAELLPVHSKSFYNDQAVYSQLIRQFTSLTHVFNRFPENQILARPPAPTITTVSENVPALTDHGTLPLRNSIGGVQRVTITDARRRTCPYVYKALGIVSPRVLSSRTF
- stoichiometry N: 5
